# In US20220387579A1:
# Molecular target: RSV F A strain Viral Protein (Respiratory Syncytial Virus A strain)
# Assay: SPR
substance,measurement,value
Palivizumab,Kd,0.26 nM
